Laboratory results reported in patent US9132174 (ANCHORED RSK3 INHIBITORS, dated 2015).

T1: His-tagged mAKAP 1286-1833 (bacterially expressed) (UniProt Q9WVC7 1286-1833)
T1 chain: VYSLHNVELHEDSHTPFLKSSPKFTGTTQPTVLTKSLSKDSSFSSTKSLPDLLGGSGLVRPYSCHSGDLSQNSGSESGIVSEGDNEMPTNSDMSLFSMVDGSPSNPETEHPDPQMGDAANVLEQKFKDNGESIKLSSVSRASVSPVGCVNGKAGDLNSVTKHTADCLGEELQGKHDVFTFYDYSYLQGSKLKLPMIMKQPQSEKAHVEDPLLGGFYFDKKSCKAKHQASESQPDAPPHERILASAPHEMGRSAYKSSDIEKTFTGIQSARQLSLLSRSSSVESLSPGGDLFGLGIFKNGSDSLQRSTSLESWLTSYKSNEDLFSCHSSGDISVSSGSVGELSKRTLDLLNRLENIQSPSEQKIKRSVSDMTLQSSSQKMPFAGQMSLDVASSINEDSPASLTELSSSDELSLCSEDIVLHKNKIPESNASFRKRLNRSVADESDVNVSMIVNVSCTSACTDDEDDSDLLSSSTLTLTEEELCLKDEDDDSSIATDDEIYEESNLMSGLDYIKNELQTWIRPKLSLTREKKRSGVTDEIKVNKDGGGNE

T2: His-tagged mAKAP 1286-1833 (bacterially expressed) (UniProt Q9WVC7 1286-1833)
T2 construct: Covalently immobilised by amine coupling on a CM5 chip, 200 resonance units; not shown: His tag (pET30 parent vector)
T2 sequence (looked up): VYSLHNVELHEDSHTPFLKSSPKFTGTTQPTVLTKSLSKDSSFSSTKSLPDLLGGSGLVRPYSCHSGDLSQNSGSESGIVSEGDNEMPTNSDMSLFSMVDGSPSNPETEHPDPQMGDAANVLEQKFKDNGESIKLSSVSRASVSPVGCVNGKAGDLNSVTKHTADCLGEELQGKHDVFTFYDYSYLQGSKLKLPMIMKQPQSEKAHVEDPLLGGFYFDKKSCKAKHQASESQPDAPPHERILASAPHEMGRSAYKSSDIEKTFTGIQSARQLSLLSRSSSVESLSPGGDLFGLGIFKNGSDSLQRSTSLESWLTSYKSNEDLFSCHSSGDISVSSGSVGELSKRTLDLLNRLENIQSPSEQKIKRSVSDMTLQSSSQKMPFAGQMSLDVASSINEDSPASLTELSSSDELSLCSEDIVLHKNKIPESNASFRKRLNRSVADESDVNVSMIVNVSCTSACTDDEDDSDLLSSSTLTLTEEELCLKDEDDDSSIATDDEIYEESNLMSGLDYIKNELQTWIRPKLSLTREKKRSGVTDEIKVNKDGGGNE


What was measured:
[1] = molecular target: T1, His-tagged mAKAP 1286-1833 (bacterially …); experiment: SPR; unphosphorylated RSK3
[2] = molecular target: T2, His-tagged mAKAP 1286-1833 (bacterially …); experiment: SPR (BIAcore T100), His-mAKAP 1286-1833 immobilised, phospho-His-RSK3 as analyte
Text: Figure 7: FIG. 7. The p90 ribosomal S6 kinase type 3 (RSK3) binding site within muscle A-kinase anchoring protein (mAKAP). A, mAKAP domain structure. […] All fragments are numbered per mAKAPα. The grey bar indicates the RSK3 binding site. B-F, Specific tag antibodies were used to immunoprecipitate myc-tagged mAKAPβ and HA-tagged p90 ribosomal S6 kinase (RSK) proteins (see FIG. 4A) co-expressed in either HEK293 (B) or COS-7 (C-F) cells (n=3) for all panels. G, Surface plasmon resonance using purified bacterially expressed proteins. […] Each curve was repeated 3 times using different protein preparations.
Surface Plasmon Resonance: SPR analysis was performed using a BIAcore T100. […] (Biacore amine coupling kit) to the surface of a sensor chip (BIAcore type CM5). His-RSK3 analytes (6.25-200 nmol/L) in HBS buffer (10 mmol/L Hepes, pH 7.4, 150 mmol/L NaCl, and 0.005% Surfactant P20) were injected at a flow rate of 30 μL/min for 5 minutes, followed by buffer alone for another 5 minutes. Sensorgrams were processed by BIAcore T100 evaluation software.

[3] = molecular target: T1, His-tagged mAKAP 1286-1833 (bacterially …); experiment: SPR; ERK-phosphorylated RSK3
[4] = molecular target: T1, His-tagged mAKAP 1286-1833 (bacterially …); experiment: SPR; ERK- and PDK1-phosphorylated RSK3

Binder	Kd [1] [nM]	fold decrease in binding affinity against unphosphorylated RSK3 [2] [fold]	Kd [3] [nM]	Kd [4] [nM]
His-tagged full-length RSK3, unphosphorylated (bacterially expressed) (enzyme) MDLSMKKFAVRRFFSVYLRRKSRSKSSSLSRLEEEGVVKEIDISHHVKEGFEKADPSQFELLKVLGQGSYGKVFLVRKVKGSDAGQLYAMKVLKKATLKVRDRVRSKMERDILAEVNHPFIVKLHYAFQTEGKLYLILDFLRGGDLFTRLSKEVMFTEEDVKFYLAELALALDHLHSLGIIYRDLKPENILLDEEGHIKITDFGLSKEAIDHDKRAYSFCGTIEYMAPEVVNRRGHTQSADWWSFGVLMFEMLTGSLPFQGKDRKETMALILKAKLGMPQFLSGEAQSLLRALFKRNPCNRLGAGIDGVEEIKRHPFFVTIDWNTLYRKEIKPPFKPAVGRPEDTFHFDPEFTARTPTDSPGVPPSANAHHLFRGFSFVASSLIQEPSQQDLHKVPVHPIVQQLHGNNIHFTDGYEIKEDIGVGSYSVCKRCVHKATDTEYAVKIIDKSKRDPSEEIEILLRYGQHPNIITLKDVYDDGKFVYLVMELMRGGELLDRILRQRYFSEREASDVLCTITKTMDYLHSQGVVHRDLKPSNILYRDESGSPESIRVCDFGFAKQLRAGNGLLMTPCYTANFVAPEVLKRQGYDAACDIWSLGILLYTMLAGFTPFANGPDDTPEEILARIGSGKYALSGGNWDSISDAAKDVVSKMLHVDPHQRLTAMQVLKHPWVVNREYLSPNQLSRQDVHLVKGAMAATYFALNRTPQAPRLEPVLSSNLAQRRGMKRLTSTRL	1.6			
ERK-phosphorylated His-RSK3 (enzyme, phosphorylated in vitro with ERK2; sites of this preparation not given, also called Phospho-His-RSK3 (ERK2); not shown: His tag) MDLSMKKFAVRRFFSVYLRRKSRSKSSSLSRLEEEGVVKEIDISHHVKEGFEKADPSQFELLKVLGQGSYGKVFLVRKVKGSDAGQLYAMKVLKKATLKVRDRVRSKMERDILAEVNHPFIVKLHYAFQTEGKLYLILDFLRGGDLFTRLSKEVMFTEEDVKFYLAELALALDHLHSLGIIYRDLKPENILLDEEGHIKITDFGLSKEAIDHDKRAYSFCGTIEYMAPEVVNRRGHTQSADWWSFGVLMFEMLTGSLPFQGKDRKETMALILKAKLGMPQFLSGEAQSLLRALFKRNPCNRLGAGIDGVEEIKRHPFFVTIDWNTLYRKEIKPPFKPAVGRPEDTFHFDPEFTARTPTDSPGVPPSANAHHLFRGFSFVASSLIQEPSQQDLHKVPVHPIVQQLHGNNIHFTDGYEIKEDIGVGSYSVCKRCVHKATDTEYAVKIIDKSKRDPSEEIEILLRYGQHPNIITLKDVYDDGKFVYLVMELMRGGELLDRILRQRYFSEREASDVLCTITKTMDYLHSQGVVHRDLKPSNILYRDESGSPESIRVCDFGFAKQLRAGNGLLMTPCYTANFVAPEVLKRQGYDAACDIWSLGILLYTMLAGFTPFANGPDDTPEEILARIGSGKYALSGGNWDSISDAAKDVVSKMLHVDPHQRLTAMQVLKHPWVVNREYLSPNQLSRQDVHLVKGAMAATYFALNRTPQAPRLEPVLSSNLAQRRGMKRLTSTRL		5	7.3	
ERK and PDK1-phosphorylated His-RSK3 (enzyme, phosphorylated in vitro with ERK2 and PDK1; sites of this preparation not given, also called Phospho-His-RSK3 (ERK2 and PDK1); not shown: His tag) MDLSMKKFAVRRFFSVYLRRKSRSKSSSLSRLEEEGVVKEIDISHHVKEGFEKADPSQFELLKVLGQGSYGKVFLVRKVKGSDAGQLYAMKVLKKATLKVRDRVRSKMERDILAEVNHPFIVKLHYAFQTEGKLYLILDFLRGGDLFTRLSKEVMFTEEDVKFYLAELALALDHLHSLGIIYRDLKPENILLDEEGHIKITDFGLSKEAIDHDKRAYSFCGTIEYMAPEVVNRRGHTQSADWWSFGVLMFEMLTGSLPFQGKDRKETMALILKAKLGMPQFLSGEAQSLLRALFKRNPCNRLGAGIDGVEEIKRHPFFVTIDWNTLYRKEIKPPFKPAVGRPEDTFHFDPEFTARTPTDSPGVPPSANAHHLFRGFSFVASSLIQEPSQQDLHKVPVHPIVQQLHGNNIHFTDGYEIKEDIGVGSYSVCKRCVHKATDTEYAVKIIDKSKRDPSEEIEILLRYGQHPNIITLKDVYDDGKFVYLVMELMRGGELLDRILRQRYFSEREASDVLCTITKTMDYLHSQGVVHRDLKPSNILYRDESGSPESIRVCDFGFAKQLRAGNGLLMTPCYTANFVAPEVLKRQGYDAACDIWSLGILLYTMLAGFTPFANGPDDTPEEILARIGSGKYALSGGNWDSISDAAKDVVSKMLHVDPHQRLTAMQVLKHPWVVNREYLSPNQLSRQDVHLVKGAMAATYFALNRTPQAPRLEPVLSSNLAQRRGMKRLTSTRL		8		12.7
